From PMC11766367, “Structure-Function Relationship of the β-Hairpin of Thermus thermophilus HB27 Laccase” (International Journal of Molecular Sciences, 2025)

What was measured:
purified protein = substrate: COc1ccccc1O; assay: purified protein; conditions: pH 6.0, 61.5 °C, free copper contradictory: caption says without, methods and text suggest 1 mM CuSO4 added
[1] = substrate: CCn1c(=NN=c2sc3cc(S(=O)(=O)O)ccc3n2CC)sc2cc(S(=O)(=O)O)ccc21; assay: spectrophotometric oxidation assay, Michaelis-Menten fit; format: biochemical, Thermus thermophilus; conditions: pH 6.0, 61.5 °C, free copper contradictory: caption says without, methods and text suggest 1 mM CuSO4 added
From the text: (§1) spectrophotometric oxidation assay, Michaelis-Menten fit on Tth-Lac

[2] = substrate: COc1cccc(OC)c1O; assay: as above; format: biochemical, Thermus thermophilus; conditions: pH 7.0, 61.5 °C, free copper contradictory: caption says with, methods and text suggest without, pH 7.0
From the text: as §1

[3] = substrate: COc1cc(C=NN=Cc2cc(OC)c(O)c(OC)c2)cc(OC)c1O; assay: as above; format: biochemical, Thermus thermophilus; conditions: pH 6.0, 61.5 °C, free copper contradictory: caption says without, methods and text suggest 1 mM CuSO4 added
From the text: as §1

B1: Tth-Lac (Thermus thermophilus HB27; A292G/DEL293-307) (protein)
chain: QGPSFPEPKVVRSQGGLLSLKLSATPTPLALAGQRATLLTYGGSFPGPTLRVRPRDTVRLTLENRLPEPTNLHWHGLPISPKVDDPFLEIPPGESWTYEFTVPKELAGTFWYHPHLHGRVAPQLFAGLLGALVVESSLDAIPELREAEEHLLVLKDLALQGGRPAPHTPMDWMNGKEGDLVLVNGALRPTLVAQKATLRLRLLNASNARYYRLALQDHPLYLIAADGGFLEEPLEVSELLLAPGERAEVLVRLRKEGRFLLQALPYDRGGGPSRPETLLYLIAPKNPKPLPLPKALSPFPTLPAPVVTRRLVLTEDMMAARFFINGQVFDHRRVDLKGQAQTVEVWEVENQGDMDHPFHLHVHPFQVLSVGGRPFPYRAWKDVVNLKAGEVARLLVPLREKGRTVFHCHIVEHEDRGMMGVLEVG
notes: signal peptide removed, gene starts at residue 23; pET-22b(+), E. coli BL21 Gold (DE3) with CuSO4; heat step and CM-Sepharose; no tag mentioned; monomer
Km (purified protein; C2Tth-Lac): 37 ± 5 µM | Vmax (purified protein; C2Tth-Lac): 3.98 ± 0.21 µmol/mg/min | Km ([1]; C2Tth-Lac, pH 6.0): 940 ± 190 µM | Vmax ([1]; C2Tth-Lac, pH 6.0): 14.80 ± 1.43 µmol/mg/min | Km ([2]; C2Tth-Lac): 220 ± 30 µM | Vmax ([2]; C2Tth-Lac): 0.87 ± 0.4 µmol/mg/min | Km ([3]; C2Tth-Lac, pH 6.0): 7.2 ± 1.13 µM | Vmax ([3]; C2Tth-Lac, pH 6.0): 7.20 ± 0.46 µmol/mg/min

B2: Tth-Lac (Thermus thermophilus HB27; A304G/DEL295-303) (protein)
chain: QGPSFPEPKVVRSQGGLLSLKLSATPTPLALAGQRATLLTYGGSFPGPTLRVRPRDTVRLTLENRLPEPTNLHWHGLPISPKVDDPFLEIPPGESWTYEFTVPKELAGTFWYHPHLHGRVAPQLFAGLLGALVVESSLDAIPELREAEEHLLVLKDLALQGGRPAPHTPMDWMNGKEGDLVLVNGALRPTLVAQKATLRLRLLNASNARYYRLALQDHPLYLIAADGGFLEEPLEVSELLLAPGERAEVLVRLRKEGRFLLQALPYDRGAMGGMPQGPSRPETLLYLIAPKNPKPLPLPKALSPFPTLPAPVVTRRLVLTEDMMAARFFINGQVFDHRRVDLKGQAQTVEVWEVENQGDMDHPFHLHVHPFQVLSVGGRPFPYRAWKDVVNLKAGEVARLLVPLREKGRTVFHCHIVEHEDRGMMGVLEVG
notes: as for B1
Km (purified protein; P1Tth-Lac): 49.9 ± 6 µM | Vmax (purified protein; P1Tth-Lac): 9.57 ± 0.47 µmol/mg/min | Km ([1]; P1Tth-Lac, pH 6.0): 1090 ± 160 µM | Vmax ([1]; P1Tth-Lac, pH 6.0): 21.48 ± 1.81 µmol/mg/min | Km ([2]; P1Tth-Lac): 430 ± 60 µM | Vmax ([2]; P1Tth-Lac): 1.45 ± 0.07 µmol/mg/min

B3: Tth-Lac (Thermus thermophilus HB27; DEL292-307/G291S) (protein)
chain: QGPSFPEPKVVRSQGGLLSLKLSATPTPLALAGQRATLLTYGGSFPGPTLRVRPRDTVRLTLENRLPEPTNLHWHGLPISPKVDDPFLEIPPGESWTYEFTVPKELAGTFWYHPHLHGRVAPQLFAGLLGALVVESSLDAIPELREAEEHLLVLKDLALQGGRPAPHTPMDWMNGKEGDLVLVNGALRPTLVAQKATLRLRLLNASNARYYRLALQDHPLYLIAADGGFLEEPLEVSELLLAPGERAEVLVRLRKEGRFLLQALPYDRSGPSRPETLLYLIAPKNPKPLPLPKALSPFPTLPAPVVTRRLVLTEDMMAARFFINGQVFDHRRVDLKGQAQTVEVWEVENQGDMDHPFHLHVHPFQVLSVGGRPFPYRAWKDVVNLKAGEVARLLVPLREKGRTVFHCHIVEHEDRGMMGVLEVG
notes: as for B1
Km (purified protein; C1Tth-Lac): 45 ± 8 µM | Vmax (purified protein; C1Tth-Lac): 9.47 ± 0.46 µmol/mg/min | Km ([1]; C1Tth-Lac): 280 ± 60 µM | Vmax ([1]; C1Tth-Lac): 12.34 ± 0.91 µmol/mg/min | Km ([3]; C1Tth-Lac): 7.83 ± 1.35 µM | Vmax ([3]; C1Tth-Lac): 14.60 ± 0.80 µmol/mg/min

B4: Tth-Lac (Thermus thermophilus HB27) (protein)
chain: QGPSFPEPKVVRSQGGLLSLKLSATPTPLALAGQRATLLTYGGSFPGPTLRVRPRDTVRLTLENRLPEPTNLHWHGLPISPKVDDPFLEIPPGESWTYEFTVPKELAGTFWYHPHLHGRVAPQLFAGLLGALVVESSLDAIPELREAEEHLLVLKDLALQGGRPAPHTPMDWMNGKEGDLVLVNGALRPTLVAQKATLRLRLLNASNARYYRLALQDHPLYLIAADGGFLEEPLEVSELLLAPGERAEVLVRLRKEGRFLLQALPYDRGAMGMMDMGGMAHAMPQGPSRPETLLYLIAPKNPKPLPLPKALSPFPTLPAPVVTRRLVLTEDMMAARFFINGQVFDHRRVDLKGQAQTVEVWEVENQGDMDHPFHLHVHPFQVLSVGGRPFPYRAWKDVVNLKAGEVARLLVPLREKGRTVFHCHIVEHEDRGMMGVLEVG
notes: as for B1
Km (purified protein): 21 ± 2 µM | Vmax (purified protein): 5.14 ± 0.11 µmol/mg/min | Km ([1]; pH 6.0): 1030 ± 160 µM | Vmax ([1]; pH 6.0): 28.48 ± 1.93 µmol/mg/min | Km [2]: 880 ± 80 µM | Vmax [2]: 6.00 ± 0.24 µmol/mg/min | Km ([3]; pH 6.0): 6.17 ± 0.5 µM | Vmax ([3]; pH 6.0): 13.92 ± 0.31 µmol/mg/min
